Publication PMC5180209 (Structure (London, England : 1993), 2016)
Square brackets hold non-standard residues; d marks the D form. Ends that are not written are not given here. pS = N[C@@H](COP(=O)(O)O)C(=O)O

Target: B56γ 31–380 (PP2A regulatory subunit B56) (UniProt Q13362 31-380)
Experiment: ITC

Binder TLSIKKL[pS]PIIEDDREADH [pS-BubR1 peptide, 663-TLSIKKL-pS-PIIEDDREADH-681 (mono-phosphorylated BubR1)] has a Kd of 600 nM.

With KL[pS]PIIEDE [BubR1 peptide 668-KLpSPIIEDE-676] the “fold increase of affinity as salt is reduced from 300 mM to 150 mM” value was ~3.6 fold.

With KLEPIIEDE [BubR1 peptide 668-KLEPIIEDE-676] the “fold weaker affinity than KLpSPIIEDE” value was 2.4 fold.

KL[pS]PIIED[pS] [pSpS-BubR1 peptide, 668-KL-pS-PIIED-pS-676 (dually-phosphorylated BubR1)] gave a Kd of 2000 nM.

Binder RDIASKKPLL[pS]PIPELPEVPE [pS-RepoMan peptide, 581-RDIASKKPLL-pS-PIPELPEVPE-601 (mono-phosphorylated RepoMan)] has a Kd of 100 nM.

With KL[pS]PIIED [BubR1 peptide 668-KLpSPIIED-675] the “fold weaker binding than the peptide with residue 676” value was ~1.7 fold.
